Source: patent US5070188A, “Acylated epidermal growth factor” (Ethicon, Inc., priority 1989, dated 1991)
Values joined by “and” are separate entries in the source; they are usually repeats but may differ in a detail not shown here. Equal values may be shown once.

How the values were obtained:
[1] = shelf stability, activity followed with the Receptor Binding Assay; type: physicochemical; settings: for activity retained (RBA), 2 months/4° C.: stored 2 months at 4° C.; for activity retained (RBA), 2 months/37° C.: stored 2 months at 37° C.
Excerpt: Samples are further analyzed by testing the biological activity in the Receptor Binding Assay (RBA) system and/or in a mitogenic assay system according to the standard procedure. Under these conditions, the extent of activity of modified EGF was compared with that of the unmodified EGF on a weight per weight basis. A similar test is used to follow the stability of EGF products. The RBA is described in Savage et al., Analytical Biochem, 111, pages 195 et seq. (1981) and in U.S. Pat. No. 4,717,717. For RBA studies, a cell line with a high density of receptors for EGF is grown to confluency in microwell plates. After removing the growth media and slightly fixing the cells, the binding of modified EGF to the cell surface in the presence of competing iodinated-EGF is compared with the binding of non-radioactive, unmodified EGF under the same conditions. The concentration of modified EGF is extrapolated from the standard curve made for unmodified EGF. Acylated EGF with acyl side chains ranging from C2 to C8 retained biological activity according to the RBA.
The shelf stability of EGF and acylated EGF derivatives with different degrees of modification and acyl side chains was studied using the Receptor Binding Assay (RBA) system. […]

trypsin = target: T1, trypsin (Bos taurus, UniProt P00760); assay: in vitro susceptibility to proteolytic degradation (tryptic digestion, HPLC); type: in vitro ADME
T1 construct: purchased Worthington Biochem Corp
T1 sequence (P00760 24-246): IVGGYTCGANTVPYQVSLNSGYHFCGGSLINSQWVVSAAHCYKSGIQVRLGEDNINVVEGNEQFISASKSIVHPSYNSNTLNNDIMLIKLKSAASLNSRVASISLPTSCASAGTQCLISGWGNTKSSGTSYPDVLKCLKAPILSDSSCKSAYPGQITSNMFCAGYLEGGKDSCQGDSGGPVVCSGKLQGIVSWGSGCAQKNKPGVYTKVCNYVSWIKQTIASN

EGF sensitive cell line = assay: mitogenic assay, tritium labelled thymidine incorporation; type: cell-based; settings: compared with C2 acylated EGF
Description: For mitogenic assay systems, an EGF sensitive cell line is grown to confluency at the bottom of microwell plates. After replacing the regular growth media with growth factor poor media, modified EGF is added with tritium labelled thymidine. The extent of incorporation of the tritium labelled thymidine in the presence and absence of growth factors is then weighed. The effects of modified EGF are compared with those of unmodified EGF under the same system.

## C8 -EGF: acylated human EGF with C8 acyl side chain
[1]
  activity retained (RBA), 2 months/4° C.: 83.19%
  activity retained (RBA), 2 months/37° C.: 69.04%
  activity retained (RBA), stored time 0: 100%

## C2 -EGF: human EGF triacylated with acetyl groups
trypsin; mixture C2-EGF:native EGF 1.5 to 1, TPCK-trypsin, up to 4 hours incubation
  remaining fraction that resisted proteolysis: 75-80%
trypsin; trypsin, over 4 hours incubation at 30° C.
  fraction that resisted proteolytic cleavage at Arg 41 and Arg 45: over 75%
trypsin; tryptic digestion, substance alone
  tryptic fragments generated (HPLC, cation exchanger column): did not generate any fragment
[1]
  activity retained (RBA), 2 months/37° C.: 87.37% and 88%
  activity retained (RBA), stored time 0: 100%
[1]; stored at 37° C., 2 months
  improvement of retained activity over control unmodified native EGF: 30%

## Control EGF: Recombinantly produced human EGF (Chiron Corporation), unmodified 53 amino acid polypeptide, used as control [reference compound]
trypsin; mixture C2-EGF:native EGF 1.5 to 1, TPCK-trypsin, within about 20 minutes
  fraction digested: over 85%
trypsin; within 5 minutes post-incubation, 30° C.
  cleavage by trypsin: over 65%
trypsin; within 2 hours post-incubation
  remaining molecules cleaved by trypsin: 35%
[1]
  activity retained (RBA), 2 months/4° C.: 81.09% and 81%
  activity retained (RBA), 2 months/37° C.: 57.52% and 58%
  activity retained (RBA), stored time 0: 100%

## C12: acylated EGF having an acyl side chain of C12
EGF sensitive cell line
  reactivity in the mitogenic assay: nearly as reactive as C2

## C6 -EGF: acylated human EGF with C6 acyl side chain
[1]
  activity retained (RBA), 2 months/4° C.: 61.88%
  activity retained (RBA), 2 months/37° C.: 66.94%
  activity retained (RBA), stored time 0: 100%
